Measured values taken from the supplement of paper PMC10567573.

B1: C22orf15 (parent)
chain: PRGRAHLLPNPYQQDFLGLPEELR
B2: FEM1B (parent)
chain: TLAALLLNRSESDIRYLLGYVSQQ

Variants of: B1
Assay: protein stability index of a GFP-peptide fusion (GPS, HEK-293T) (PSI 1-6); higher = more stable
Settings: c terminus: a fixed tail appended
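Also: lentivirally expressed fusions sorted by FACS into six bins by GFP to DsRed ratio, PSI derived from sequencing read proportions per bin multiplied by bin number.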

Protein stability index: each site, then its substitutions
P11: K 4.04, L 3.42, M 3.72, N 4.24, Q 4.35, R 3.33, S 3.83, T 4.1, V 3.5, W 2.71, Y 3.56
Y12: A 4.51, C 3.84, D 4.53, E 4.54, F 3.5, G 4.87, H 4.02, I 4.36, K 4.11, L 3.85, M 4.61, N 4.61, P 4.41, Q 4.07, R 4.33, S 4.54, T 4.44, V 4.17, W 2.87
Q13: A 3.7, C 3.39, D 4.1, E 4.05, F 3.1, G 4.1, H 3.74, I 3.1, K 3.65, L 3.43, M 3.42, N 3.66, P 4.21, R 3.75, S 3.56, T 3.64, V 3.59, W 2.7, Y 3.46
Q14: A 3.73, C 3.46, D 4.7, E 4.47, F 3.66, G 3.67, H 3.92, I 3.19, K 4.01, L 3.54, M 3.56, N 3.91, P 4.5, R 3.19, S 3.96, T 3.77, V 3.26, W 2.93, Y 2.98
D15: A 3.38, C 2.67, E 3.74, F 2.96, G 3.44, H 3.17, I 3.22, K 3.3, L 2.99, M 2.97, N 3.31, P 3.76, Q 3.69, R 3.74, S 3.19, T 3.44, V 3.36, W 2.98, Y 3.2
F16: A 4.12, C 4.11, D 4.92, E 4.63, G 4.4, H 4.44, I 4.01, K 4.22, L 4.23, M 4.15, N 4.36, P 4.12, Q 3.84, R 4.15, S 3.83, T 4.17, V 4.17, W 3.65, Y 4.17
L17: A 4.43, C 4.04, D 4.87, E 4.94, F 3.47, G 3.84, H 4.41, I 2.85, K 4.42, M 3.44, N 4.28, P 4.3, Q 4.4, R 4.03, S 4.2, T 4.17, V 4.52, W 3.37, Y 3.6
G18: A 4.25, C 3.9, D 4.66, E 4.36, F 3.24, H 4.19, I 3.49, K 4.13, L 3.7, M 3.98, N 4.25, P 3.71, Q 4.27, R 3.32, S 3.94, T 4.05, V 3.73, W 2.98, Y 3.34
L19: A 4.13, C 4.26, D 4.68, E 4.5, F 3.31, G 4.05, H 4.21, I 3.57, K 4.28, M 3.53, N 4.1, P 4.22, Q 4.69, R 3.9, S 4, T 4.26, V 4, W 3.75, Y 3.82
P20: A 3.46, C 2.85, D 4.07, E 4.08, F 2.43, G 3.14, H 3.37, I 2.75, K 3.38, L 2.76, M 2.78, N 3.62, Q 3.53, R 3.23, S 3.39, T 3.42, V 2.46, W 2.26, Y 2.42
E21: A 3.54, C 3.3, D 3.51, F 3.42, G 3.61, H 3.44, I 2.89, K 3.56, L 3.02, M 3.14, N 3.63, P 3.6, Q 3.06, R 3.15, S 3.29, T 2.81, V 3.1, W 2.9, Y 2.75
E22: A 3.47, C 3.22, D 4.06, F 3.27, G 3.61, H 3.42, I 2.59, K 3.47, L 2.3, M 2.64, N 3.65, P 3.25, Q 3.57, R 3.76, S 3.62, T 4.23, V 3.11, W 2.93, Y 2.52
L23: A 4.24, C 4.08, D 4.49, F 3.66, G 4.41, H 4.68, I 4.09, K 4.63, M 4.33, N 4.01, P 3.6, Q 4.51, R 4.04, S 4.17, T 3.94, V 3.68, W 3.45, Y 3.88
R24: A 3.05, C 3.29, D 4.3, E 4.17, F 3.17, G 3.8, H 3.3, I 3.64, K 4.12, L 3.47, M 2.97, N 3.94, P 4.03, Q 3.89, S 3.7, T 4.11, V 3.63, W 2.11, Y 3.05

Variants of: B2
Assay: as above
Settings: c terminus: a fixed tail appended

Protein stability index, by site and new letter:
T1: A 2.5, C 3.15, D 1.66, E 2.21, G 2.61, I 3.74, K 2.89, L 1.72, M 3.36, N 2.8, P 2.1, Q 1.85, S 2.98, W 1.93, Y 3.91
L2: A 1.7, C 3.06, D 2.1, E 2.01, F 2.56, G 2.11, H 1.43, K 1.64, M 2.24, N 1.89, P 1.93, Q 2.44, R 1.84, S 1.57, T 1.77, V 2.68, W 2.87, Y 2.2
A3: C 2.17, D 2, E 2.92, F 3.58, G 2.15, H 2.12, I 2.65, K 1.18, L 2.64, M 2.35, N 1.7, P 2.08, Q 2.31, R 2.25, T 2.18, V 3.73, W 2.38
A4: C 2.3, D 2.37, E 2.94, F 3.05, G 1.68, H 2.97, I 2.37, K 2.59, M 1.5, N 2.53, P 2.09, Q 2.05, R 3.48, S 3.29, T 2.35, V 2.42, W 2.28, Y 3.38
L5: A 2.03, C 2.4, D 2.45, E 2.14, F 5.25, G 1.12, H 2.62, I 3.24, K 1.44
